# Values joined by “and” are separate entries in the source; they are usually repeats but may differ in a detail not shown here. Identical values can stand only once. Like-named read-outs stand apart in the source and are kept apart here. Square brackets hold non-standard residues; d marks the D form. Peptide text beside a SMILES is read from it. Bpa = N[C@@H](Cc1ccc(C(=O)c2ccccc2)cc1)C(=O)O; Alexa488 = Alexa Fluor 488 fluorescent label
# Columns and labels:
# [1] = Solubility of Bpa-mutated peptides in the competition assay; assay type: physicochemical; conditions: FIG. 11, Bpa scan; inhibition under determined
# BACE [2] = molecular target: T1, BACE (Homo sapiens, UniProt P56817); assay: Phage ELISA of phage-displayed peptides on immobilised BACE; assay type: binding; design: The cDNA for the catalytic domain of human BACE (residues 1-460) was PCR-amplified; human IgG1 heavy chain (C, cleaved yes); thrombin cleavage site (C); made in house; host or cells: CHO DG44 cells (stably transfected, secreted); conditions: peptides from solution phase panning; tested at pH 5.0
# Target sequence in this assay (P56817 46-460 limits assumed): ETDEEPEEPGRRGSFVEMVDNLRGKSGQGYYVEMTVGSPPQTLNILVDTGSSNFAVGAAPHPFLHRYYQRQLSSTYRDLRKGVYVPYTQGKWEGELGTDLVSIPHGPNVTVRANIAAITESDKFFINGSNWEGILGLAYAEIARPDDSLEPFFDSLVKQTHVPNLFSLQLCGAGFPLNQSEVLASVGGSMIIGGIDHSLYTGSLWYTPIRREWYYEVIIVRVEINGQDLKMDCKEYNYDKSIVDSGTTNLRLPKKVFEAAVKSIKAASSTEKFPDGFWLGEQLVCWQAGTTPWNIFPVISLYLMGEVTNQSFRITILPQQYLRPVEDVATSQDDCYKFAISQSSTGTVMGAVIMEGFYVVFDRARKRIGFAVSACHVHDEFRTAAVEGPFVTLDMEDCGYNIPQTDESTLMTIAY
# [3] = molecular target: T2, catalytic domain of BACE purified from E. coli cells (Homo sapiens, UniProt P56817); assay: Binding of labeled EBP to BACE purified from E. coli cells; conditions: compared with BACE purified from CHO cells
# T2 construct: the catalytic domain of BACE purified from E. coli cells; made in house; host or cells: E. coli
# T2 sequence (P56817 46-457 limits assumed): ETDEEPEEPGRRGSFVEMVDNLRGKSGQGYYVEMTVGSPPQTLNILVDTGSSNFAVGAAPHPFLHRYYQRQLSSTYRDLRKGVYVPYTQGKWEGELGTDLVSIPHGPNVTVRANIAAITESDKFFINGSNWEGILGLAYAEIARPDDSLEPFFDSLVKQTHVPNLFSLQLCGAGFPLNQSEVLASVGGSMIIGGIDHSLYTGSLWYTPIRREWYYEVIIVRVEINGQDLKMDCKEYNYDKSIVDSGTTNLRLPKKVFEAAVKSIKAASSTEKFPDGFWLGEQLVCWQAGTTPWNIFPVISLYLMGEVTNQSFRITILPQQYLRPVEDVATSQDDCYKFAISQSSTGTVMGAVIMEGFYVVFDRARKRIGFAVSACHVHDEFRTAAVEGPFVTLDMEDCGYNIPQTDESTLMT
# Experimental: Binding of Molecule Y1 to the catalytic domain of BACE purified from E. coli cells was carried out to determine the effect of glycosylation on the EBP binding.
# [4] = molecular target: T3, catalytic domain of human BACE expressed in a CHO cell line (Homo sapiens, UniProt P56817); assay: Fluorescently labeled EBP binding to BACE, fluorescence anisotropy; conditions: for Kd: pH 4.5 (50 mM acetate), 25° C., 1:1 binding model, read-out: binding constant (Kd) of labeled EBP
# T3 construct: The cDNA for the catalytic domain of human BACE (residues 1-460) was PCR-amplified; human IgG1 heavy chain (C, cleaved yes); thrombin cleavage site (C); made in house; host or cells: CHO DG44 cells (stably transfected, secreted)
# T3 sequence (P56817 46-460 limits assumed): as the sequence (P56817 46-460 limits assumed) above
# Experimental: An assay to evaluate the binding of BACE to EBPs labeled with a fluorescent molecule (for example, but not limited to Alexa488) was developed. This assay uses the catalytic domain of human BACE expressed in a CHO cell line (according to Example 3) and labeled EBPs such as Molecule X shown in FIG. 4. The change in fluorescent anisotropy of the EBP peptide upon binding to BACE is monitored.
# Peptides were dissolved in 100% DMSO (dimethyl sulfoxide) at 10 mM concentration, and then diluted 10-fold into deionized water. The concentration of the labeled peptides was determined by their absorbance at 495 nm (ε=71000 cm^−1M^−1). The concentration of selected unlabeled peptides was determined by their Tyr absorbance at 276 nm (ε=1390 cm^−1M^−1 per Tyr residue).
# The binding was carried out at pH 7.1 (PBS buffer) and pH 4.5 (50 mM acetate buffer) in the presence of 1% DMSO. Fluorescence anisotropy was measured at 25° C. in an AVIV fluorometer. The excitation and emission wavelengths were set to 495 and 519 nm, respectively. The excitation and emission slit width were 4 and 10 nm, respectively. A concentrated BACE stock was used to titrate a 300 μl solution of 10 nM labeled EBP. The final BACE concentration ranges from 10 to 5000 nM. After the addition of BACE, the solution was mixed for 10 times with a pipettor. The fluorescence anisotropy was averaged over a 5 minute period.
# The change in anisotropy was plotted against the BACE concentration (see, for example, FIG. 5). The Kd of the labeled EBP as well as the initial (r0) and final anisotropy (rb) of the labeled EBP were calculated from curve fitting using the program Kaleidagraph. The equation used to fit the binding data is identical to equation 1 in Lai et al., (2000) Arch. Biochem. Biophys. 381:278-284.
# BACE [5] = molecular target: T1, BACE; assay: BACE cleavage assay with MCA-[…](-dnp)-COOH substrate, HPLC analysis; assay type: biochemical; conditions: 0.1 nM BACE, 25 μM substrate peptide, 60 minutes at 25° C.; read-out: IC50, inhibition of proteolytic activity of BACE
# Experimental: Molecule Y3 was tested in a BACE cleavage assay using the peptide MCA-[…](-dnp)-COOH (SEQ ID NO:107) as a substrate. The assay was carried out essentially as described in Mallender et al., (2001) Mol. Pharmacol. 59:619-626 and in Marcinkeviciene et al., (2001) J. Biol. Chem. 276: 23790-23794. A concentration of 0.1 nM BACE was incubated with Molecule Y3 at various concentrations for 15 minutes before substrate peptide was added to a final concentration of 25 μM. The reaction was allowed to proceed for 60 minutes at 25° C. before it was stopped by boiling. The reaction mixture was separated on a C18 column using reverse phase HPLC (Waters, Milford, Mass.). The IC50 value was calculated using the Langmuir isotherm equation (Copeland, R. A., Enzymes: A Practical Introduction to Structure, Mechanism, and Data Analysis, (2nd ed), Wiley-VCH, New York, N.Y. (2000)).
# Target sequence in this assay (P56817 46-457 limits assumed): as the sequence (P56817 46-457 limits assumed) above
compound,measurement,setting,value
CC(=O)N[C@@H](Cc1ccc(O)cc1)C(=O)N1CCC[C@H]1C(=O)N[C@@H](Cc1ccc(O)cc1)C(=O)N[C@@H](Cc1ccccc1)C(=O)N[C@@H](Cc1ccc(C(=O)c2ccccc2)cc1)C(=O)N1CCC[C@H]1C(=O)N[C@@H](CC(C)C)C(N)=O [I9B] (Ac-YPYF[Bpa]PL-NH2),solubility,[1],limited solubility
CC[C@H](C)[C@H](NC(=O)[C@H](Cc1ccccc1)NC(=O)[C@H](Cc1ccc(O)cc1)NC(=O)[C@H](Cc1ccc(C(=O)c2ccccc2)cc1)NC(=O)[C@H](Cc1ccc(O)cc1)NC(C)=O)C(=O)N1CCC[C@H]1C(=O)N[C@@H](CC(C)C)C(N)=O [P6B] (Ac-Y[Bpa]YFIPL-NH2),solubility,[1],limited solubility
ETWPRFIPYHALTQQTLKHQQHT,phage ELISA binding to BACE,BACE [2],strong and specific binding
"Molecule Y1: peptide YPYFIPL (BMS-593925) with C-terminal Alexa488 label, FIG. 4 (Ac-YPYFIPL-Alexa488; also: linker between peptide and Alexa488 not given here)",binding affinity for E. coli expressed (non-glycosylated) human BACE,[3],the same as that of human BACE purified from CHO cells
same,enhancement of affinity in the presence of OM99-2,[4]; in the presence of 10 μM OM99-2,5 fold
same,Kd,[4]; listed as Y1,58 nM and 57 nM
Molecule Y3: analog of Molecule Y1 with different length of linker between Alexa488 and the peptide (Ac-YPYFIPL-Alexa488; also: linker between peptide and Alexa488 not given here),IC50,BACE [5],731 nM
same,Kd,[4],48 nM
TAEYESRTARTAPPAPTQHWPFFIRST,phage ELISA binding to BACE,BACE [2],strong and specific binding

# Reference: patent US7314726B2, “Beta secretase exosite binding peptides and methods for identifying beta secretase modulators” (Bristol-Myers Squibb Company, priority 2002, dated 2008)
